Laboratory results: patent US20100015126A1, “Methods of Binding of Cross-Beta Structures By Chaperones” (priority 2006, published 2010)

Target: T1, human mitochondrial HSP60 (Homo sapiens, UniProt P10809)
T1 construct: Dr. W. van Eden, Utrecht University; host or cells: E. coli
Experiment: ELISA: binding of HSP60 to immobilized (misfolded) protein ligands
Experimental: Recombinant human HSP60 with N-terminal His-tag was a kind gift of Dr. R. van der Zee and Prof. Dr. W. van Eden (Institute of Infectious Diseases and Immunology, Faculty of Veterinary Medicine, Utrecht University, Utrecht, The Netherlands), and was supplied in lyophilized form. The HSP60 was produced in E. coli and purified using Nickel-Sepharose. The HSP60 was lyophilized from 20-40 mM ammonium-bicarbonate solution, after purification, and stored at −20° C. The construct lacks the mitochondrial signal sequence. […] Before use, the lyophilized protein is dissolved at room temperature at 1 mg/ml in 20-40 mM NH4HCO3, resulting in a pH of 7.0. Aliquots are stored at −20° C. or −80° C. The mitochondrial HSP60 is a functional dimer of heptamers (MW(HSP60 monomer)=˜58 kDa), and is involved in multimer protein assembling and aids in transport of unfolded proteins across membranes. For the binding studies, at two occasions separate HSP60 solutions were prepared originating from the same batch of purified protein, lyophilized in separate Eppendorf cups.
Binding of chaperones to immobilized (misfolded) protein ligands was determined using an enzyme linked immuno sorbent assay (ELISA) approach. […] After 5 washes with wash buffer followed by two washes with PBS, binding of antibodies was assessed. […] Plates were read at 450 nm. […]

T1 sequence (P10809 27-573): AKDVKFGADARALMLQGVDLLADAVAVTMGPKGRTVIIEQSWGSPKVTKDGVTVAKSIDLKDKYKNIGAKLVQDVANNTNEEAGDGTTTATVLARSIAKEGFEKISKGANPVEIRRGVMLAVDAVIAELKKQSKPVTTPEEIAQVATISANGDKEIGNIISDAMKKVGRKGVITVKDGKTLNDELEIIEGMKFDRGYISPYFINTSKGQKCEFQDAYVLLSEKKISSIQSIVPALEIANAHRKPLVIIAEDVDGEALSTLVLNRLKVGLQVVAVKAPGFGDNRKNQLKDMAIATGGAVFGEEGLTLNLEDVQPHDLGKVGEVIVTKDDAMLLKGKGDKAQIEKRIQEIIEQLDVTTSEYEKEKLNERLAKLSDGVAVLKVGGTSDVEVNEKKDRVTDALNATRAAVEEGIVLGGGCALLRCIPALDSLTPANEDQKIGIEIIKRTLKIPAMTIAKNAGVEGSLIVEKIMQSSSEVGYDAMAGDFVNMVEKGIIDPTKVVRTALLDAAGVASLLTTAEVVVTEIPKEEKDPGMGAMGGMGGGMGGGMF

Binding of concentration series of HSP60 to coated ligand: has been established
B1: dOVA standard: heat-denatured chicken ovalbumin (protein)
chain: GSIGAASMEFCFDVFKELKVHHANENIFYCPIAIMSALAMVYLGAKDSTRTQINKVVRFDKLPGFGDSIEAQCGTSVNVHSSLRDILNQITKPNDVYSFSLASRLYAEERYPILPEYLQCVKELYRGGLEPINFQTAADQARELINSWVESQTNGIIRNVLQPSSVDSQTAMVLVNAIVFKGLWEKAFKDEDTQAMPFRVTEQESKPVQMMYQIGLFRVASMASEKMKILELPFASGTMSMLVLLPDEVSGLEQLESIINFEKLTEWTSSNVMEERKIKVYLPRMKMEEKYNLTSVLMAMGITDVFSSSANLSGISSAESLKISQAVHAAHAEINEAGREVVGSAEAGVDAASVSEEFRADHPFLFCIKHIATNAVLFFGRCVSP
